Laboratory results published in patent US20260226179A1 (MAB DESIGNS, published 2026).
Numbering of substitutions follows the chain as printed. “And” between values parts separate entries of the source, which are not always exact repeats. Equal entries are not always repeated.

T1: human soluble IL-6R (human, UniProt P08887 20-357)
T1 sequence: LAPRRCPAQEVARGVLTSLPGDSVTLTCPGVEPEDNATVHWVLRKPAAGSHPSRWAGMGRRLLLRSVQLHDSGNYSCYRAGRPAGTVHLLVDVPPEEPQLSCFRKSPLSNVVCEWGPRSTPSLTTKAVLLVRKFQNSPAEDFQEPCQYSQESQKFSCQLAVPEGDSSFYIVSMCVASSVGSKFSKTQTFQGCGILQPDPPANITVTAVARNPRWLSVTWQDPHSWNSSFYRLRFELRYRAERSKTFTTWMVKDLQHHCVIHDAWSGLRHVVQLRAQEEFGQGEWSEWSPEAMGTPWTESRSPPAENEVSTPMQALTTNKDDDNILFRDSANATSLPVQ

T2: human membrane-bound IL-6R subunit alpha (human, UniProt P08887 20-468)
T2 sequence: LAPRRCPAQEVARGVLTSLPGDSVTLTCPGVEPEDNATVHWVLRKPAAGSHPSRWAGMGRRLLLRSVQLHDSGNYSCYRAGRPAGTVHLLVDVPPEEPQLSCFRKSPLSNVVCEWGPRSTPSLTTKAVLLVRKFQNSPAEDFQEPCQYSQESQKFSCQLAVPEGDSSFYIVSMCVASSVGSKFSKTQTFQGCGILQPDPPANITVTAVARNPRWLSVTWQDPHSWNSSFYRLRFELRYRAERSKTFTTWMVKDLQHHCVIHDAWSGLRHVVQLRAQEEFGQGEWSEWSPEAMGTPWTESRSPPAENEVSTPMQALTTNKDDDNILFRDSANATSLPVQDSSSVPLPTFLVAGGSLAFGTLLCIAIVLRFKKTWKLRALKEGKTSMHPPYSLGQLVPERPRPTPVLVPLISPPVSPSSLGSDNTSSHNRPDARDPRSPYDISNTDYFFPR

T3: human soluble IL-6R (human, UniProt P08887 20-357, limits assumed)
T3 sequence: T1 sequence

B1: candidate anti-IL-6R Fab clone 20 (Fab, V domains shown)
VH: EVKLMESGGGLVQPGGSLKLSCAASGFTFSNYGMSWVRQTPDKRLELVAIINSNGGSTYYPDSVKGRFTISRDNAKNTLYLQMSSLKSEDTAIYYCARDGNFVSDYWGQGTTLTVSS
VL: DIVLTQSPASLAVSLGQRATISCRASESVDSYGNRFLNWYQQKPGQPPKLLIYLASNLESGVPARFSGSGSRTDFTLTIDPVEADDAATYYCQQNNEDPYTFGGGTKLEIK
B2: anti-IL-6R Fab C20 (purified Fab fragment of C20) (Fab, V domains shown)
VH: B1 VH
VL: B1 VL
B3: candidate anti-IL-6R Fab clone 07 (Fab, V domains shown)
VH: EVKLVESGGGLVQPGGSLKLSCAASGFTFSSYAMSWVRQTADKRLELVANINSNGGSTYYPDSVKGRFTISRDNAKNTLFLQMSSLKSEDTAMYYCAREGYYTMDYWGQGTSVTVSS
VL: B1 VL with L15P, R35S, L37M

What was measured:
Experiment in all cases: cell-based or functional assay
[1] = target: T1, human soluble IL-6R
[2] = target: T2, human membrane-bound IL-6R subunit alpha
[3] = target: T1, human soluble IL-6R; remark: listed apart in the source
[4] = target: T2, human membrane-bound IL-6R subunit alpha; remark: listed apart in the source
[5] = target: T1, human soluble IL-6R; remark: listed apart in the source
[6] = target: T3, human soluble IL-6R
[7] = target: Hyper-IL-6 (recombinant fusion protein consisting of IL-6 and soluble IL-6R)

Binder | Proliferation in % (Ba/F3_gp130 cells, IL-6 + sIL-6R = 100%; IL-6 trans signalling; 1% PE) [1] [%] | Residual STAT3 phosphorylation in HEK293_IL-6R (IL-6 + sIL-6R; combined classical and trans signalling; 1% PE) [2] [%] | Classical:trans signalling ratio intracellular signalling [3] [ratio] | Residual STAT3 phosphorylation in HEK293 (IL-6 + sIL-6R; IL-6 trans signalling; 1% PE) [3] [%] | Proliferation in % (Ba/F3_gp130_IL-6R cells, IL-6 + sIL-6R = 100%; combined IL-6 classical and trans signalling; 1% PE) [4] [%] | Classical:trans signalling ratio proliferation [5] [ratio] | IC50 of inhibition of proliferation of Ba/F3_gp130 cells induced by 10 ng/ml IL-6 and 200 ng/ml sIL-6R [6] | IC50 of inhibition of proliferation of Ba/F3_gp130 cells induced by 28 ng/ml Hy-IL-6 [7]
B1 | 36.6 | 97 | 3 | 32 | 81.9 | 2.2 |  | 
B2 |  |  |  |  |  |  | 159 ng/ml and 3.2 nM | 98 ng/ml and 1.9 nM
B3 | 55.7 | 77 | 2.8 | 28 | 86.1 | 1.5 |  | 
